Measured values reported in patent publication US5260280A (priority 1989, dated 1993).
Values joined by “and” are separate entries in the source; they are usually repeats but may differ in a detail not shown here. Equal entries are not always repeated.

Key:
cholera toxin B-subunits = cholera toxin B-subunits (Vibrio cholerae, UniProt P01556); type: binding
cholera toxin CT = cholera toxin CT (Vibrio cholerae, UniProt P01556); type: cell-based
enterotoxin LT-I = test system: enterotoxin LT-I; set-up: species or system E. coli; settings: in vivo, po
[1] = target: enterotoxin CFA/II(LT-II) (Escherichia coli, UniProt P0CK94); type: cell-based, E. coli
enterotoxin CFA/I(LT-1) = enterotoxin CFA/I(LT-1) (Escherichia coli, UniProt D0Z6T1); type: cell-based, E. coli

B1: lactoferrin (protein, UniProt P24627 20-708, looked up)
Lactotransferrin: APRKNVRWCTISQPEWFKCRRWQWRMKKLGAPSITCVRRAFALECIRAIAEKKADAVTLDGGMVFEAGRDPYKLRPVAAEIYGTKESPQTHYYAVAVVKKGSNFQLDQLQGRKSCHTGLGRSAGWIIPMGILRPYLSWTESLEPLQGAVAKFFSASCVPCIDRQAYPNLCQLCKGEGENQCACSSREPYFGYSGAFKCLQDGAGDVAFVKETTVFENLPEKADRDQYELLCLNNSRAPVDAFKECHLAQVPSHAVVARSVDGKEDLIWKLLSKAQEKFGKNKSRSFQLFGSPPGQRDLLFKDSALGFLRIPSKVDSALYLGSRYLTTLKNLRETAEEVKARYTRVVWCAVGPEEQKKCQQWSQQSGQNVTCATASTTDDCIVLVLKGEADALNLDGGYIYTAGKCGLVPVLAENRKSSKHSSLDCVLRPTEGYLAVAVVKKANEGLTWNSLKDKKSCHTAVDRTAGWNIPMGLIVNQTGSCAFDEFFSQSCAPGADPKSRLCALCAGDDQGLDKCVPNSKEKYYGYTGAFRCLAEDVGDVAFVKNDTVWENTNGESTADWAKNLNREDFRLLCLDGTRKPVTEAQSCHLAVAPNHAVVSRSDRAAHVKQVLLHQQALFGKNGKNCPDKFCLFKSETKNLLFNDNTECLAKLGGRPTYEEYLGTEYVTAIANLKKCSTSPLLEACAFLTR
interference with the binding of the cholera toxin B-subunits to GM1 (cholera toxin B-subunits): interfered with the binding | neutralization of the toxicity of CT against CHO-Kl cells (morphological alteration) (cholera toxin CT): neutralized the toxicity | Rate of diarrhea (enterotoxin LT-I): 40% and 20% | neutralization of the toxicity of LT-II against CHO-Kl cells (morphological alteration) [1]: neutralized the toxicity | neutralization of the toxicity of LT-I against CHO-Kl cells (morphological alteration) (enterotoxin CFA/I(LT-1)): neutralized the toxicity
